In doi:10.1101/869214:

Target: calf collagen type I (calf) (UniProt P02453)
Assay: ELISA

Chain of UniProt P02453 (P02453 162-1217, chain 1 of 2): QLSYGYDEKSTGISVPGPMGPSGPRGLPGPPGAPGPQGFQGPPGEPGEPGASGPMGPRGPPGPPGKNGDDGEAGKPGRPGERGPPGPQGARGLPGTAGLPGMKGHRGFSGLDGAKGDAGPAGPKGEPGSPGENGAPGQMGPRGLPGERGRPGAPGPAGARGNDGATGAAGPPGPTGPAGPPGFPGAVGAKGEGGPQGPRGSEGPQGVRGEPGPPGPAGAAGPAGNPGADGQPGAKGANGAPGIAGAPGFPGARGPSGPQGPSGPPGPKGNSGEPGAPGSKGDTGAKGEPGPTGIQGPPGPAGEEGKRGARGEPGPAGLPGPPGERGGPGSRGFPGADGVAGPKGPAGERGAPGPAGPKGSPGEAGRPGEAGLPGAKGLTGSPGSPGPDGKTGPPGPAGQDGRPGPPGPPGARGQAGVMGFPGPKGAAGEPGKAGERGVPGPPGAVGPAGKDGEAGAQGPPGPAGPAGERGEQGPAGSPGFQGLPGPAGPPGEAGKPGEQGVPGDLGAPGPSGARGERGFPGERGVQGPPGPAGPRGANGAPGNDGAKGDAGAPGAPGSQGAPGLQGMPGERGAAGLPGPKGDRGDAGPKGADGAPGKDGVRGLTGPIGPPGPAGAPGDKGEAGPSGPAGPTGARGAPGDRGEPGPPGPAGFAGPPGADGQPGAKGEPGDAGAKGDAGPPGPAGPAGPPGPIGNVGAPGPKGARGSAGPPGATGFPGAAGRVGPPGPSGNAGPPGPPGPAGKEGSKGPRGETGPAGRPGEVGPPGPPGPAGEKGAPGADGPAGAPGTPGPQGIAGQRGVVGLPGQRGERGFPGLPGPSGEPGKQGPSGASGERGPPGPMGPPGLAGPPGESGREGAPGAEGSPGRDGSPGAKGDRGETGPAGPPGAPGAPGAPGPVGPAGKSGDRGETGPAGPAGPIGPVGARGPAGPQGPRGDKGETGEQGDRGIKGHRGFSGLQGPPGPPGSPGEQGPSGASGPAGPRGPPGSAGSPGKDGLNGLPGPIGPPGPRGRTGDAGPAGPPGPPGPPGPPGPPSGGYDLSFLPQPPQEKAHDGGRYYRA
Chain of UniProt P02453 (P02465 80-1117, chain 2 of 2, further chain): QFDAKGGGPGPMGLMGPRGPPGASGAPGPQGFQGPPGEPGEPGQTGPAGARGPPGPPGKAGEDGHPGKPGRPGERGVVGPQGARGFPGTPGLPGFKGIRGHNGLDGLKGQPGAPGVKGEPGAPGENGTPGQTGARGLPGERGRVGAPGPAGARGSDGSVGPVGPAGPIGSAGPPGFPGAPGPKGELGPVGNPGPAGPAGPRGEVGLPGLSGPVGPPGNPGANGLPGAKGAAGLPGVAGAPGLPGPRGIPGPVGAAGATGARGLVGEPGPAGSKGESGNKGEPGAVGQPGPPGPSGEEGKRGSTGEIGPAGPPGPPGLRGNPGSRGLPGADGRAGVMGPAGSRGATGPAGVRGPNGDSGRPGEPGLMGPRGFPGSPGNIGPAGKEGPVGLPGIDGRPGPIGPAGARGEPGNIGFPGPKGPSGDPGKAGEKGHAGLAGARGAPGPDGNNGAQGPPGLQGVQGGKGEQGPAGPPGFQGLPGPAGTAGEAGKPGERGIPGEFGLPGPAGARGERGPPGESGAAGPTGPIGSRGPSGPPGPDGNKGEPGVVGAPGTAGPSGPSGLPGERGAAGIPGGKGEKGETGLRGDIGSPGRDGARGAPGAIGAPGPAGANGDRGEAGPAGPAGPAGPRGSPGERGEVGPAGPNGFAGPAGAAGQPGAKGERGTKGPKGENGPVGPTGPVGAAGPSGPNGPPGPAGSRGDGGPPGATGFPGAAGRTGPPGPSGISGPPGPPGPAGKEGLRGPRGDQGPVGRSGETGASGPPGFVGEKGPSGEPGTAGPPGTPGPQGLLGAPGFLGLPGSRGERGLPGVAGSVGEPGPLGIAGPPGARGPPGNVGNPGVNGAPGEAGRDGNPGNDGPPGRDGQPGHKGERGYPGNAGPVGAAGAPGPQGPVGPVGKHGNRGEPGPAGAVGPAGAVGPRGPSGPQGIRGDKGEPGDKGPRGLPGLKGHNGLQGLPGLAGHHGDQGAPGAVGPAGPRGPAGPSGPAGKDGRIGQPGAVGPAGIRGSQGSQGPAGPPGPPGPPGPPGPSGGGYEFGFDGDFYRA

percent binding at pH 4: 50%
Substance: Yersinia enterocolitica adhesin YadA head domains with a C-terminal His6-tag (domain or fragment)
